T1: Tau(pS422) fragment SEQ ID NO: 03 (human)
T1 sequence (peptide, phosphoserine at position 7 (position 422 of SEQ ID NO, 01)): SIDMVDXPQLATLAD

B1: VH00/VL00 (antibody, V domains shown)
VH: QSVEESGGRLVTPGTPLTLTCTVSGFSLSSNAINWVRQAPGKGLEWIGYIAVSGNTYYASWAKGRFTISKASTTVDLKMTSPTAEDTGTYFCGKSNIWGPGTLVTVSL
VL: AQVLTQTTSPVSAAVGSTVTISCQSSQSVRTNKLAWFQQKPGQPPKRLIYSASTLDFGVPSRFSASGSGTQFTLTISDVQCDDAATYYCLGYFDCSIADCVAFGGGTEVVVK
B2: VH76A6/VL145B12 (antibody, V domains shown)
VH: EVQVLESGGGLVQPGGSLRLSCAVSGFSLSNSAINWVRQAPGKGLEWVGYIAVSGNTYYASWAKGRFTISRDNSKNTVYLQMNSLRAEDTAVYYCGKSNIWGQGTLVTVSS
VL: AQVMTQSPSSLSASVGDRVTITCRSSQSVRSNKLAWFQQKPGQPPKRLIYAASNLDFGVPSRFSGSGSGTEFTLTISSLQPEDFATYYCLGYFDSSADIVAFGGGTKVEIK

Tests used:
[1] = target: T1, Tau(pS422) fragment SEQ ID NO: 03 (human); test: SPR capture assay (Example 10), 25 C
[2] = target: T1, Tau(pS422) fragment SEQ ID NO: 03 (human); test: ELISA

Row | Binder | Kd [1] | koff [1] | kon [1] | EC50 [2]
1 | B1 | 1.96 nM | 0.000265 s⁻¹ | 135000 M⁻¹ s⁻¹ | 0.04 µg/mL
2 | B2 | 2.61 nM | 0.000628 s⁻¹ | 240000 M⁻¹ s⁻¹ | 0.0403 µg/mL
